What was measured:
[1] = target: 4-1BB (human) (UniProt Q07011)
[2] = target: CMV pp65 presented by HLA-A*0201

Substance	Granzyme B density near the immunological synapse (fold reduction) [1]	T cell expansion after weekly restimulation with HLA-A*0201^+ pp65-transduced Caco-2 tumor cells [2]
dsRed-monomer-4-1 BBL fusion protein (from UniProt P41273) (ligand)	2.02	–
CMV pp65-specific T lymphocytes (cells without a defined receptor)	–	209 fold

From patent US20160008398A1
